Experimental findings from paper PMC5059453, “Structure of ubiquitylated-Rpn10 provides insight into its autoregulation mechanism” (Nature Communications, 2016) are described below.

B1: free mono-ubiquitin (wild type) (natural protein)
chain: not shown
notes: ubiquitin (Ub), the mature 76-residue protein; also called Ub wt; source: purified, size exclusion chromatography before each experiment

Common to all, as to assay: SPR; α-GST antibody immobilized on a CM5 chip captures GST-Rpn10 derivatives (ligands); free mono-Ub variants as analytes; 10 mM HEPES pH 7.0, 150 mM NaCl, 0.005% polysorbate-20, 25 °C; triplicate; single-site-binding model
Conditions in all cases: both partners purified
A general note: Surface plasmon resonance follows binding to a sensor surface in real time, without labels.

Experiment [1] addresses T1, GST-Rpn10 (full-length Rpn10) (S. cerevisiae, UniProt P38886 1-268).
T1 construct: Rpn10, proteasomal ubiquitin receptor, S. cerevisiae; open reading frame encodes residues 1-268; Plasmid pGST-Rpn10; also called Rpn10 wt; wild-type full-length Rpn10; source: expressed and purified as GST-fusion protein, size exclusion chromatography before each experiment
T1 sequence (looked up): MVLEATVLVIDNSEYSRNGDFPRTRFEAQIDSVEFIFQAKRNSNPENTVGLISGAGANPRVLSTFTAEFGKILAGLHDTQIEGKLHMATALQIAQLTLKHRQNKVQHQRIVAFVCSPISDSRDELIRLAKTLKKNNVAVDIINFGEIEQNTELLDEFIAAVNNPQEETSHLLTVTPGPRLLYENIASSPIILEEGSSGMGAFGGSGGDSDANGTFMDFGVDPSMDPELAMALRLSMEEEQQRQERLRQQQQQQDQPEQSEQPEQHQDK

Experiment [2] deals with T2, GST-Rpn10 vWA domain (residues 1-189) (S. cerevisiae, UniProt P38886 1-189).
T2 construct: Rpn10, S. cerevisiae, N-terminal vWA (Von Willebrand factor type A) domain, residues 1-189 (made from pGST-Rpn10 by deleting residues 190-268); also called wild-type vWA; source: expressed and purified as GST-fusion protein, size exclusion chromatography before each experiment
T2 sequence (looked up): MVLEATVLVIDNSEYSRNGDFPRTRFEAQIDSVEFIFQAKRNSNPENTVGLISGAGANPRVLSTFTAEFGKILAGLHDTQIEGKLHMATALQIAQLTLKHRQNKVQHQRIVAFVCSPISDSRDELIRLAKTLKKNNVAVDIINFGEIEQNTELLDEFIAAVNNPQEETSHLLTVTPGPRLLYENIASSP

Experiment [3] deals with B1.

As usually defined, the Kd is the equilibrium constant for the complex coming apart. Low readings indicate tighter binding, high ones weaker binding. Regarding B1, the Kd is approximately 270 µM in experiment [1] and approximately 330 µM in experiment [2].

B2: GST-Rpn10 UIM (domain or fragment, S. cerevisiae, UniProt P38886 223-242, looked up)
chain: SMDPELAMALRLSMEEEQQR
notes: also called its UIM alone; source: expressed and purified as GST-fusion protein, size exclusion chromatography before each experiment
In experiment [3], B2 displayed a Kd of approximately 180 µM.
